Laboratory results reported in patent publication US20240376218A1.

Key:
[1] = biological target: human CCR8 tagged with ProLink (human); assay: cell-based or functional assay
human CCR8 (human) = human CCR8 (human) (UniProt P51685); assay: cell-based or functional assay
[2] = biological target: cynomolgus CCR8 (cynomolgus); assay: FACS, CHO cells expressing cynomolgus CCR8, signal at saturation
Sequence of cynomolgus CCR8 (cynomolgus) (O97665 other isoform, or with tags, fused parts or gaps): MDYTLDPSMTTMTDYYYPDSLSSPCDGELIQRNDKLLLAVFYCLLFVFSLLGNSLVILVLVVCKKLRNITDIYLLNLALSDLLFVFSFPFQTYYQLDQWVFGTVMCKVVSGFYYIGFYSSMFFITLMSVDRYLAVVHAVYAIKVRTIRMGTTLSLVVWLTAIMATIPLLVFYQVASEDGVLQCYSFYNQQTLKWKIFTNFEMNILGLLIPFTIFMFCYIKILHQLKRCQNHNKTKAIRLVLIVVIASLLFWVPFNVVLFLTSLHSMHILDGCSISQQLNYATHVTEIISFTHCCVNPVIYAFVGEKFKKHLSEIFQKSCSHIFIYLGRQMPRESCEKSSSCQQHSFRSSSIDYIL

| IC50 in nM for inhibition of CCL1 induced β-arrestin signaling (DiscoverX assay), CHO with hCCR8 [1] [nM] | Ca flux assay IC50 (nM), block of signaling induced by CCL1 at 60 ng/ml; CHO cells expressing human CCR8 (human CCR8 (human)) [nM] | Ca flux assay Span ratio (from max to min), block of signaling induced by CCL1 at 60 ng/ml; CHO cells expressing human CCR8 (human CCR8 (human)) | Internalization [fold isotype], HuT78 cells, BODIPY FL-labelled antibody (human CCR8 (human)) [fold isotype] | MFI [2] | Binder |
| --- | --- | --- | --- | --- | --- |
| 0.78 | 1.3 | 996 | 22 |  | 433H (antibody, from another filing, V domains shown) VH: EVQLVETGGGLVQPKGSLRLSCAASGFPFNTFAMNWVRQAPGKGLEWLARIRSKSNNYATYYADSVKDRFTISRDDSRRMLYLLMNNVKFEDTAIYYCVRGKENNYGYAMDYWGQGTSVTVSS VL: DIVMTQAAPSVPVTPGESVSISCRSSQSLLHSNGNTYLYWFLQRPGQSPQLLIYRMSNLASGVPDRFSGSGSGTAFTLRISRVEAEDVGVYYCMQHLEYPFTFGIGTKLELKR |
|  |  |  |  | < 1000 | Clone 433H (ICOS, BD) (antibody, from another filing, V domains shown) VH: EVQLVETGGGLVQPKGSLRLSCAASGFPFNTFAMNWVRQAPGKGLEWLARIRSKSNNYATYYADSVKDRFTISRDDSRRMLYLLMNNVKFEDTAIYYCVRGKENNYGYAMDYWGQGTSVTVSS VL: DIVMTQAAPSVPVTPGESVSISCRSSQSLLHSNGNTYLYWFLQRPGQSPQLLIYRMSNLASGVPDRFSGSGSGTAFTLRISRVEAEDVGVYYCMQHLEYPFTFGIGTKLELKR |
